Experimental data as given in publication PMC9253516.

How the values were obtained:
[1] = molecular target: Sgo1_(1–130) (human) (UniProt Q5FBB7); assay: ITC; Survivin or CPC (monomer concentration) injected into Sgo1 constructs, 20°C; 50 mM Hepes pH 8, 150 mM NaCl, 5% glycerol, 1 mM TCEP; standard 1:1 binding model
[2] = molecular target: Sgo1_(1–155) (human) (UniProt Q5FBB7); assay: as above
[3] = molecular target: Aurora B (endogenous) (UniProt Q96GD4); assay: LacO-LacI tethering assay, immunofluorescence in U-2 OS-LacO Haspin CM cells; details: n = 17 (parent), red bar = mean, parent: est. 3.5, read off a plot
Aurora B (endogenous), sequence (Q96GD4 whole entry): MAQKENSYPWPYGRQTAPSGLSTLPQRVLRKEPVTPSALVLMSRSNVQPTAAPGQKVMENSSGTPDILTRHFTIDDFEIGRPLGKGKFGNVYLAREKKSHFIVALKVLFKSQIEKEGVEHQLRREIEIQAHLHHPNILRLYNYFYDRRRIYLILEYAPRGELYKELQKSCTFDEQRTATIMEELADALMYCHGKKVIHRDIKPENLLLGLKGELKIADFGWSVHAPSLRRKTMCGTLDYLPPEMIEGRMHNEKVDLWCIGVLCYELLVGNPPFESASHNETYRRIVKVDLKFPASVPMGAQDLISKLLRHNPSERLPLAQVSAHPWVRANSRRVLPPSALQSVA

[4] = molecular target: Sgo1_(1–415) (human) (UniProt Q5FBB7); assay: mass photometry; samples cross-linked with 0.01% glutaraldehyde 5 min at 4°C, quenched with Tris; 20 nM measured in 25 mM Hepes pH 8, 250 mM NaCl, 2 mM DTT
[5] = molecular target: Sgo1_(1–415 4A) (human) (UniProt Q5FBB7); assay: ITC; 100 μM CPC injected into 10 μM Sgo1 1-415 or 1-415 4A, 20°C; 50 mM Hepes pH 8, 250 mM NaCl, 5% glycerol, 1 mM TCEP, 0.005% Tween; standard 1:1 binding model
[6] = molecular target: Sgo1_(1–415) (human) (UniProt Q5FBB7); assay: as above
[7] = molecular target: Sgo1_(1–415) (human) (UniProt Q5FBB7); assay: ITC; Survivin or CPC (monomer concentration) injected into Sgo1 constructs, 20°C; 50 mM Hepes pH 8, 150 mM NaCl, 5% glycerol, 1 mM TCEP; standard 1:1 binding model
[8] = molecular target: Borealin (endogenous) (UniProt Q53HL2); assay: LacO-LacI tethering assay, immunofluorescence in U-2 OS-LacO Haspin CM cells; details: n = 22 (parent), red bar = mean, parent: est. 1.5, read off a plot

“Survivin full length (from UniProt O15392 1-142) (natural protein)” showed a Kd [1] of 255 nM and a Kd [2] of 240 nM.
Substance “CPC_(ISB10–280 K62A) (from UniProt Q9NQS7 1-58; O15392 1-142; Q53HL2 10-280) (complex)” has a Kd [2] of 42.4 nM.
Substance “CPC_(ISB10–280 H80A) (from UniProt Q9NQS7 1-58; O15392 1-142; Q53HL2 10-280) (complex)” has a Kd [2] of 112 nM.
“Sgo1_(1–527)-LacI-GFP V188A; S189A; V190A; R191A” gave a response ([3]; n = 19 (mutant)) of 1.6 a.u.
Work on “Survivin_(1–116) (from UniProt O15392 1-116) (domain or fragment)” yielded a Kd [2] of 408 nM.
“Sgo1_(1–415) (from UniProt Q5FBB7 1-415) (domain or fragment)” was tested, and the stoichiometry N [4] was 2.
Work on “CPC_(ISB10–221) (INCENP_(1–58), Survivin, Borealin_(10–221)) (from UniProt Q9NQS7 1-58; O15392 1-142; Q53HL2 10-221) (complex)” yielded a Kd [1] of 163 nM.
With “CPC_(ISB10–280) (INCENP_(1–58), Survivin full length, Borealin_(10–280)) (from UniProt Q9NQS7 1-58; O15392 1-142; Q53HL2 10-280) (complex)” the stoichiometry N [4] was 1 ratio (2:2), the Kd [5] was 112 nM and the Kd [6] was 151 nM. For the same substance, the Kd [1] was 57.4 nM, the Kd [2] was 71.2 nM and the Kd [7] was 52.8 nM. The dH [7] was -6.58 kcal/mol and the stoichiometry N [7] was 1.
In the case of “Sgo1_(1–527)-LacI-GFP Nmut; V188A; S189A; V190A; R191A”, the response ([3]; n = 22 (mutant)) is reported as 0.4 a.u and the response ([8]; n = 22 (mutant)) is reported as 0.28 a.u.
Sgo1_(1–527)-LacI-GFP Nmut was tested, and the response ([3]; n = 14 (mutant)) was 2.3 a.u and the response ([8]; n = 23 (mutant)) was 0.6 a.u.
